Substitutions are numbered along the chain they refer to. Values joined by “and” are separate entries in the source; they are usually repeats but may differ in a detail not shown here. Identical values can stand only once. *1 amine or outer side, *2 acyl side, *3 side chain or, on linkers, in order; H or OH if unused. Bridges are numbered along the chain shown (N, C = ends). Where no end group is shown, it is not given here. Side-chain parts run from the residue outwards. [ ]: non-standard residue; d: D form. The star is where a group is joined. (mPEG)2 40 kDa = C3 = Cys(mPEG)240kDa, branched (mPEG)2, 40 kDa; Oxa12‑cholesterol = C10 = Cys(oxa12-cholesterol); γGlu = O=C(O)[C@H](CCC(=O)[*:2])N[*:1]; oxa12‑cholesterol = not defined here; Palmitoyl = CCCCCCCCCCCCCCCC(=O)*; Met(O) = CS(=O)CC[C@H](N)C(=O)O; Ac4c = NC1(C(=O)O)CCC1; Aib = CC(C)(N)C(=O)O
B1: OXM107 (peptide)
peptide: HXQGTFTSDYSKYLDSRRAQDFVCWLMNTKRNRNNIA
modifications: Aib at position 2; C3 = Cys(mPEG)240kDa (40 kDa) at position 24; methionine sulfoxide at position 27; C-terminal amide
B2: OXM35 (peptide)
peptide: HSQGTFTSDYSKYLDSRRAQDFVQWLMNTKRNRNNIAC
modifications: D-Ser at position 2; C3 = Cys(mPEG)240kDa (branched (mPEG)2, 40 kDa) at position 38; C-terminal amide
B3: OXM100 (peptide)
peptide: B2 peptide with S2X
modifications: Aib at position 2; methionine sulfoxide at position 27; C6 = Cys(mPEG)260kDa (60 kDa) at position 38; C-terminal amide
B4: OXM69 (peptide)
peptide: B2 peptide with S2X
modifications: Aib at position 2; C3 = Cys(mPEG)240kDa (branched (mPEG)2, 40 kDa) at position 38; C-terminal amide
B5: OXM99 (peptide)
peptide: B2 peptide with S2X
modifications: not fully specified; Aib at position 2; methionine sulfoxide at position 27; C3 = Cys(mPEG)240kDa (40 kDa) at position 38; C-terminal amide
B6: OXM67 (peptide)
peptide: B2 peptide with S2X
modifications: α-aminoisobutyric acid (Aib) at position 2; C1 = Cys(mPEG)5kDa at position 38; C-terminal amide
B7: OXM36 (peptide)
peptide: B2 peptide
modifications: not fully specified; D-Ser at position 2; C4 = Cys(cholest-5-en-3-yl{[(2R)-3-amino-2-(amino)-3-oxopropyl]thio}acetate) at position 38; C-terminal amide
B8: OXM345 (peptide)
peptide: HSQGTFTSDYSKYLDSRRAQDFVQWLMNTKEEC
modifications: D-Ser at position 2; gamma-glutamic acid at positions 31 and 32; C4 = Cys(cholesterol) at position 33; C-terminal COOH
B9: OXM381 (peptide)
peptide: B8 peptide
modifications: D-Ser at position 2; gamma-glutamic acid at positions 31 and 32; C9 = Cys(mal-oxa12-cholesterol) at position 33; C-terminal COOH
B10: OXM399 (peptide)
peptide: B8 peptide
modifications: D-Ser at position 2; gamma-glutamic acid at positions 31 and 32; C10 = Cys(oxa12-cholesterol) at position 33; C-terminal COOH
B11: OXM401 (peptide)
peptide: B8 peptide with S2X
modifications: Acb (1-amino-1-cyclobutane carboxylic acid) at position 2; gamma-glutamic acid at positions 31 and 32; C10 = Cys(oxa12-cholesterol) at position 33; C-terminal COOH
B12: OXM380 (peptide)
peptide: B8 peptide
modifications: D-Ser at position 2; gamma-glutamic acid at positions 31 and 32; C7 = Cys(Oxa4-cholesterol) at position 33; C-terminal COOH
B13: OXM400 (peptide)
peptide: B8 peptide with S2X
modifications: Aib at position 2; gamma-glutamic acid at positions 31 and 32; C10 = Cys(oxa12-cholesterol) at position 33; C-terminal COOH
B14: OXM411 (peptide)
peptide: H[dS]QGTFTSDK([γGlu-γGlu-Palmitoyl])SKYLDERRAQDFVQWLMNTK-NH2
modifications: N-terminus assumed
SMILES: CCCCCCCCCCCCCCCC(=O)N[C@@H](CCC(=O)N[C@@H](CCC(=O)NCCCC[C@H](NC(=O)[C@H](CC(=O)O)NC(=O)[C@H](CO)NC(=O)[C@@H](NC(=O)[C@H](Cc1ccccc1)NC(=O)[C@@H](NC(=O)CNC(=O)[C@H](CCC(N)=O)NC(=O)[C@@H](CO)NC(=O)[C@@H](N)Cc1c[nH]cn1)[C@@H](C)O)[C@@H](C)O)C(=O)N[C@@H](CO)C(=O)N[C@@H](CCCCN)C(=O)N[C@@H](Cc1ccc(O)cc1)C(=O)N[C@@H](CC(C)C)C(=O)N[C@@H](CC(=O)O)C(=O)N[C@@H](CCC(=O)O)C(=O)N[C@@H](CCCNC(=N)N)C(=O)N[C@@H](CCCNC(=N)N)C(=O)N[C@@H](C)C(=O)N[C@@H](CCC(N)=O)C(=O)N[C@@H](CC(=O)O)C(=O)N[C@@H](Cc1ccccc1)C(=O)N[C@H](C(=O)N[C@@H](CCC(N)=O)C(=O)N[C@@H](Cc1c[nH]c2ccccc12)C(=O)N[C@@H](CC(C)C)C(=O)N[C@@H](CCSC)C(=O)N[C@@H](CC(N)=O)C(=O)N[C@H](C(=O)N[C@@H](CCCCN)C(N)=O)[C@@H](C)O)C(C)C)C(=O)O)C(=O)O
B15: OXM416 (peptide)
peptide: H[Aib]QGTFTSDK([γGlu-γGlu-Palmitoyl])SKYLDERRAQDFVQWLMNTK-NH2
modifications: N-terminus assumed
SMILES: CCCCCCCCCCCCCCCC(=O)N[C@@H](CCC(=O)N[C@@H](CCC(=O)NCCCC[C@H](NC(=O)[C@H](CC(=O)O)NC(=O)[C@H](CO)NC(=O)[C@@H](NC(=O)[C@H](Cc1ccccc1)NC(=O)[C@@H](NC(=O)CNC(=O)[C@H](CCC(N)=O)NC(=O)C(C)(C)NC(=O)[C@@H](N)Cc1c[nH]cn1)[C@@H](C)O)[C@@H](C)O)C(=O)N[C@@H](CO)C(=O)N[C@@H](CCCCN)C(=O)N[C@@H](Cc1ccc(O)cc1)C(=O)N[C@@H](CC(C)C)C(=O)N[C@@H](CC(=O)O)C(=O)N[C@@H](CCC(=O)O)C(=O)N[C@@H](CCCNC(=N)N)C(=O)N[C@@H](CCCNC(=N)N)C(=O)N[C@@H](C)C(=O)N[C@@H](CCC(N)=O)C(=O)N[C@@H](CC(=O)O)C(=O)N[C@@H](Cc1ccccc1)C(=O)N[C@H](C(=O)N[C@@H](CCC(N)=O)C(=O)N[C@@H](Cc1c[nH]c2ccccc12)C(=O)N[C@@H](CC(C)C)C(=O)N[C@@H](CCSC)C(=O)N[C@@H](CC(N)=O)C(=O)N[C@H](C(=O)N[C@@H](CCCCN)C(N)=O)[C@@H](C)O)C(C)C)C(=O)O)C(=O)O
B16: OXM417 (peptide)
peptide: H[Ac4c]QGTFTSDK([γGlu-γGlu-Palmitoyl])SKYLDERRAQDFVQWLMNTK-NH2
modifications: N-terminus assumed
SMILES: CCCCCCCCCCCCCCCC(=O)N[C@@H](CCC(=O)N[C@@H](CCC(=O)NCCCC[C@H](NC(=O)[C@H](CC(=O)O)NC(=O)[C@H](CO)NC(=O)[C@@H](NC(=O)[C@H](Cc1ccccc1)NC(=O)[C@@H](NC(=O)CNC(=O)[C@H](CCC(N)=O)NC(=O)C1(NC(=O)[C@@H](N)Cc2c[nH]cn2)CCC1)[C@@H](C)O)[C@@H](C)O)C(=O)N[C@@H](CO)C(=O)N[C@@H](CCCCN)C(=O)N[C@@H](Cc1ccc(O)cc1)C(=O)N[C@@H](CC(C)C)C(=O)N[C@@H](CC(=O)O)C(=O)N[C@@H](CCC(=O)O)C(=O)N[C@@H](CCCNC(=N)N)C(=O)N[C@@H](CCCNC(=N)N)C(=O)N[C@@H](C)C(=O)N[C@@H](CCC(N)=O)C(=O)N[C@@H](CC(=O)O)C(=O)N[C@@H](Cc1ccccc1)C(=O)N[C@H](C(=O)N[C@@H](CCC(N)=O)C(=O)N[C@@H](Cc1c[nH]c2ccccc12)C(=O)N[C@@H](CC(C)C)C(=O)N[C@@H](CCSC)C(=O)N[C@@H](CC(N)=O)C(=O)N[C@H](C(=O)N[C@@H](CCCCN)C(N)=O)[C@@H](C)O)C(C)C)C(=O)O)C(=O)O

Target: T1, human glucagon receptor (human, UniProt P47871 26-477)
Experiment: cell-based or functional assay

T1 sequence (P47871 26-477): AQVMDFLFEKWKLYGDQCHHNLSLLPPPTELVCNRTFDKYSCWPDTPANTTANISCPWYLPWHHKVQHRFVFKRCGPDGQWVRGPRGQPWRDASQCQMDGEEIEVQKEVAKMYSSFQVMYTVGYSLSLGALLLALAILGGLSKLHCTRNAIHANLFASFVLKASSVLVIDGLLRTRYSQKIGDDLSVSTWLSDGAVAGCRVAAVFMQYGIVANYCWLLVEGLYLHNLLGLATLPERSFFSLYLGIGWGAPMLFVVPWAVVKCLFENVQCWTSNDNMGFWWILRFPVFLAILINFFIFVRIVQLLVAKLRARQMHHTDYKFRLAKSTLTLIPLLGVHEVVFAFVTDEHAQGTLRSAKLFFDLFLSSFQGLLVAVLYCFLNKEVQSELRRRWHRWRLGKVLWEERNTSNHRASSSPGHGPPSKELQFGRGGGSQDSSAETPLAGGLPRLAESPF

Binder | % Activation of GCGR | GCGR EC50
H[Aib]QGTFTSDYSKYLDSRRAQC((mPEG)2 40 kDa)FVQWLMNTKRNRNNIA-NH2 [OXM105] | 21% | 648 nM
B1 | 30% | > 1000 nM
H[Aib]QGTFTSDYSKYLDSRRAC((mPEG)2 40 kDa)DFVQWLMNTKRNRNNIA-NH2 [OXM103] | 75% | 203 nM
HSQGTFTSDYSKYLDSRRAQDFVQWLMNTKRNRNNIAC (D-Ser at position 2; C1 = Cys(mPEG)5kDa at position 38; C-terminal amide) [OXM33] | 78% | 75.3 nM
B2 | 71% | 142 nM
B3 | 22% | > 1000 nM
B4 | 46% | > 1000 nM
B5 | 66% | > 1000 nM
HXQGTFTSDYSKYLDSRRAQDFVQWLMNTKRNRNNIAC (Aib at position 2; C2 = Cys(mPEG)20kDa at position 38; C-terminal amide) [OXM68] | 58% | 601 nM
HSQGTFTSDYSKYLDSRRAQDFVQWLMNTKRNRNNIAC (D-Ser at position 2; C2 = Cys(mPEG)20kDa at position 38; C-terminal amide) [OXM34] | 61% | 616 nM
B6 | 73% | 138 nM

Target: T2, human GLP-1 receptor (human, UniProt P43220 24-463)
Experiment: cell-based or functional assay

Binder | GLP-1R EC50
H[Aib]QGTFTSDYC((mPEG)2 40 kDa)KYLDSRRAQDFVQWL[Met(O)]NTKRNRNNIA-NH2 [OXM121] | > 125 nM
H[Aib]QGTFTSDYSKYLDSRRAQC((mPEG)2 40 kDa)FVQWLMNTKRNRNNIA-NH2 [OXM105] | 28.5 nM
B1 | 29.7 nM
H[Aib]QGTFTSDYSKYLDSRRAC((mPEG)2 40 kDa)DFVQWLMNTKRNRNNIA-NH2 [OXM103] | 6.2 nM
HSQGTFTSDYSKYLDSRRAQDFVQWLMNTKRNRNNIAC (D-Ser at position 2; C1 = Cys(mPEG)5kDa at position 38; C-terminal amide) [OXM33] | 115 nM
B2 | 716 nM
B3 | 22.5 nM
B4 | 6 nM
B5 | 7.4 nM
HXQGTFTSDYSKYLDSRRAQDFVQWLMNTKRNRNNIAC (Aib at position 2; C2 = Cys(mPEG)20kDa at position 38; C-terminal amide) [OXM68] | 8.3 nM
HSQGTFTSDYSKYLDSRRAQDFVQWLMNTKRNRNNIAC (D-Ser at position 2; C2 = Cys(mPEG)20kDa at position 38; C-terminal amide) [OXM34] | 195 nM
B6 | 5.8 nM
H[Aib]QGTFTSDYSC((mPEG)2 40 kDa)YLDSRRAQDFVQWL[Met(O)]NTKRNRNNIA-NH2 [OXM124] | > 100 nM

Target: T1, human glucagon receptor
Experiment: cell-based or functional assay
Remark: another data set of the same source

Binder | GCGR + 10% plasma | GCGR EC50
HSQGTFTSDYSKYLDSRRAQDFVQWLMNTKRNRNNIAK (D-Ser at position 2; K(palmitoyl) at position 38; C-terminal amide) [OXM110] | 6.9 nM | 0.31 nM
B7 | – | 12.1 nM

Target: T1, human glucagon receptor
Experiment: cell-based or functional assay
Remark: another data set of the same source

Binder | hGCGR + 20% plasma EC50 | hGCGR EC50
B8 | > 1000 nM | 0.1 nM
B9 | 0.8 nM and 0.9 nM | –
B10 | 0.4 nM | 0.01 nM
B11 | 0.3 nM | 0.09 nM
B12 | 3.4 nM | 0.1 nM
B13 | 0.8 nM | 0.01 nM
B14 | 0.2 nM | –
H[Aib]QGTFTSDYSKYLDERRAKDFVQWLMNTK[γGlu][γGlu]C(Oxa12‑cholesterol)-OH (lactam 16-20) [OXM395] | 119 nM | 10 nM
H[dS]QGTFTSDYSKYLDERRAKDFVQWLMNTK[γGlu][γGlu]C(oxa12‑cholesterol)-OH (lactam 16-20; reading uncertain) [OXM392] | 0.3 nM | 0.03 nM
B15 | 1.4 nM | –
B16 | 0.4 nM | –
HSQGTFTSDKSKYLDSRRAQDFVQWLMNTK (D-Ser at position 2; Lys(γE-γE-palmitoyl) at position 10; C-terminal amide) [OXM409] | 0.1 nM | –

Target: T2, human GLP-1 receptor
Experiment: cell-based or functional assay
Remark: another data set of the same source

Binder | hGLP-1R + 20% Plasma EC50 | hGLP-1R EC50
B8 | > 1000 nM | 5.1 nM
B9 | 1.9 nM | –
B10 | 5.7 nM | 0.05 nM
B11 | 2.9 nM | 0.23 nM
B12 | 30.7 nM | 0.3 nM
B13 | 1.9 nM | 0.07 nM
B14 | 0.1 nM | –
H[Aib]QGTFTSDYSKYLDERRAKDFVQWLMNTK[γGlu][γGlu]C(Oxa12‑cholesterol)-OH (lactam 16-20) [OXM395] | 3.3 nM | 0.7 nM
H[dS]QGTFTSDYSKYLDERRAKDFVQWLMNTK[γGlu][γGlu]C(oxa12‑cholesterol)-OH (lactam 16-20; reading uncertain) [OXM392] | 3 nM | 0.03 nM
B15 | 0.09 nM | –
B16 | 0.15 nM | –
HSQGTFTSDKSKYLDSRRAQDFVQWLMNTK (D-Ser at position 2; Lys(γE-γE-palmitoyl) at position 10; C-terminal amide) [OXM409] | 0.7 nM | –

— patent US20120165503A1 (Merck Sharp & Dohme, published 2012)
